Results taken from article PMC3005583.

Biological target: lysozyme (Lys) (UniProt P00698 19-147)
Assay: competition

B1: Anti-Lys aptamer / Competitor 3 probe (mixed)
DNA 1: ATCAGGGCTAAAGAGTGCAGAGTTACTTAG
DNA 2: ATCAGGGCACTCTTTAGCCCTGAT
modifications: 5' and 3' pyrene via (CH2)6 on strand 2
- binding result: binds
